Patent US20200024330A1

Experiments:
Test in all cases: cell-based or functional assay
[1] = molecular target: HIV-1 92TH021 envelope glycoprotein (Env) on pseudovirus (HIV-1)
[2] = molecular target: HIV-1 Env of isolate MGRM-AE-006 (HIV-1)
[3] = molecular target: HIV-1 Env of isolate MGRM-AE-008 (HIV-1)
[4] = molecular target: HIV-1 Env of isolate MGRM-Chronic-B-018 (HIV-1)
[5] = molecular target: HIV-1 Env of isolate MGRM-G-009 (HIV-1)
[6] = molecular target: HIV-1 Env of isolate MGRM-AE-004 (HIV-1)
[7] = molecular target: HIV-1 Env of isolate MGRM-AE-005 (HIV-1)
[8] = molecular target: HIV-1 Env of isolate MGRM-F1-016 (HIV-1)
[9] = molecular target: HIV-1 Env of isolate MGRM-Chronic-B-012 (HIV-1)
[10] = molecular target: HIV-1 Env of isolate MGRM-Chronic-B-010 (HIV-1)
[11] = molecular target: HIV-1 Env of isolate MGRM-AG-005 (HIV-1)
[12] = molecular target: HIV-1 Env of isolate MGRM-AG-003 (HIV-1)
[13] = molecular target: HIV-1 Env of isolate MGRM-Chronic-B-017 (HIV-1)
[14] = molecular target: HIV-1 92UG024 envelope glycoprotein (Env) on pseudovirus (HIV-1)
[15] = molecular target: HIV-1 Env of isolate MGRM-AG-002 (HIV-1)
[16] = molecular target: HIV-1 Env of isolate MGRM-Chronic-B-024 (HIV-1)
[17] = molecular target: HIV-1 Env of isolate MGRM-G-001 (HIV-1)
[18] = molecular target: HIV-1 Env of isolate MGRM-G-006 (HIV-1)
[19] = molecular target: HIV-1 MGRM-A-012 envelope glycoprotein (Env) (HIV-1)
[20] = molecular target: HIV-1 92RW020 envelope glycoprotein (Env) on pseudovirus (HIV-1)
[21] = molecular target: HIV-1 Env of isolate MGRM-AG-013 (HIV-1)
[22] = molecular target: HIV-1 Env of isolate MGRM-AG-012 (HIV-1)
[23] = molecular target: HIV-1 NL43 envelope glycoprotein (Env) on pseudovirus (HIV-1)
[24] = molecular target: HIV-1 Env of isolate MGRM-AG-011 (HIV-1)
[25] = molecular target: HIV-1 Env of isolate MGRM-AG-001 (HIV-1)
[26] = molecular target: HIV-1 Env of isolate MGRM-AE-007 (HIV-1)
[27] = molecular target: HIV-1 Env of isolate MGRM-Chronic-B-023 (HIV-1)
[28] = molecular target: HIV-1 Env of isolate MGRM-G-004 (HIV-1)
[29] = molecular target: HIV-1 Env of isolate MGRM-G-019 (HIV-1)
[30] = molecular target: HIV-1 Env of isolate MGRM-G-014 (HIV-1)
[31] = molecular target: HIV-1 Env of isolate MGRM-G-015 (HIV-1)
[32] = molecular target: HIV-1 Env of isolate MGRM-G-016 (HIV-1)
[33] = molecular target: HIV-1 Env of isolate MGRM-G-011 (HIV-1)
[34] = molecular target: aMLV envelope (negative control pseudovirus)
[35] = molecular target: HIV-1 92BR020 envelope glycoprotein (Env) on pseudovirus (HIV-1)
[36] = molecular target: HIV-1 Env of isolate MGRM-G-027 (HIV-1)
[37] = molecular target: HIV-1 Env of isolate MGRM-G-017 (HIV-1)
[38] = molecular target: HIV-1 Env of isolate MGRM-G-013 (HIV-1)
[39] = molecular target: HIV-1 JR-CSF Env D477A (HIV-1 (isolate JR-CSF)) (UniProt P20871)

1496_C09 (PG9) (TCN-109) (antibody)
IC50 (ug/ml), neutralizing activity [1]: 0.103 µg/mL | IC50 neutralization [1]: 0.103 µg/mL | IC80, neutralization [1]: 0.448 µg/mL | IC90 (pseudovirus neutralization) [1]: 1.99 µg/mL | IC90, neutralization [1]: 1.07 µg/mL | IC95, neutralization [1]: 2.43 µg/mL | IC50 (µg/mL), pseudovirus neutralization [2]: 0.063 µg/mL | IC50 (µg/ml), pseudovirus neutralization [2]: 0.05 µg/mL | IC50 (µg/mL), pseudovirus neutralization [3]: 31.5 µg/mL | IC50 (µg/ml), pseudovirus neutralization [3]: 10.6 µg/mL | IC50 (µg/ml), pseudovirus neutralization [4]: 0.16 µg/mL | IC50 (µg/ml), pseudovirus neutralization [5]: 4.9 µg/mL | IC50 (µg/mL), pseudovirus neutralization [6]: 0.009 µg/mL | IC50 (µg/ml), pseudovirus neutralization [6]: 0.01 µg/mL | IC50 (µg/mL), pseudovirus neutralization [7]: 0.282 µg/mL | IC50 (µg/ml), pseudovirus neutralization [7]: 0.16 µg/mL | IC50 (µg/mL), pseudovirus neutralization [8]: 0.518 µg/mL | IC50 (µg/ml), pseudovirus neutralization [9]: 0.91 µg/mL | IC50 (µg/ml), pseudovirus neutralization [10]: 0.004 µg/mL | IC50 (µg/ml), pseudovirus neutralization [11]: 29.7 µg/mL | IC50 (µg/ml), pseudovirus neutralization [12]: 9.71 µg/mL | IC50 (µg/ml), pseudovirus neutralization [13]: 0.32 µg/mL | IC50 (ug/ml), neutralizing activity [14]: 1.91 µg/mL | IC50 neutralization [14]: 1.91 µg/mL | IC50 (µg/mL), pseudovirus neutralization [15]: 0.076 µg/mL | IC50 (µg/ml), pseudovirus neutralization [15]: 0.04 µg/mL | IC50 (µg/ml), pseudovirus neutralization [16]: 0.18 µg/mL | IC50 (µg/ml), pseudovirus neutralization [17]: 0.16 µg/mL | IC50 (µg/ml), pseudovirus neutralization [18]: 0.51 µg/mL | IC50 (µg/ml), pseudovirus neutralization [19]: 11.2 µg/mL | IC50 (ug/ml), neutralizing activity [20]: 0.161 µg/mL | IC50 neutralization [20]: 0.161 µg/mL | IC80, neutralization [20]: 1.04 µg/mL | IC90 (pseudovirus neutralization) [20]: 6.55 µg/mL | IC90, neutralization [20]: 3.4 µg/mL | IC50 (µg/mL), pseudovirus neutralization [21]: 0.259 µg/mL | IC50 (µg/ml), pseudovirus neutralization [21]: 0.23 µg/mL | IC50 (µg/mL), pseudovirus neutralization [22]: 22.8 µg/mL | IC50 (µg/ml), pseudovirus neutralization [22]: 1.37 µg/mL | IC50 (ug/ml), neutralizing activity [23]: 0.687 µg/mL | IC50 neutralization [23]: 0.687 µg/mL | IC50 (µg/mL), pseudovirus neutralization [24]: 0.007 µg/mL | IC50 (µg/ml), pseudovirus neutralization [24]: 0.01 µg/mL | IC50 (µg/mL), pseudovirus neutralization [25]: 17.1 µg/mL | IC50 (µg/ml), pseudovirus neutralization [25]: 8.83 µg/mL | IC50 (µg/mL), pseudovirus neutralization [26]: 0.18 µg/mL | IC50 (µg/ml), pseudovirus neutralization [27]: 0.04 µg/mL

5141_B17 (PGT-126) (antibody)
IC50, pseudovirus neutralization [28]: > 50 µg/mL | IC50 (ug/ml), neutralizing activity [1]: 0.115 µg/mL | neutralization IC50 [2]: 17.3 µg/mL | IC50, pseudovirus neutralization [29]: 0.018 µg/mL | neutralization IC50 [3]: > 50 µg/mL | IC50, pseudovirus neutralization [5]: > 50 µg/mL | neutralization IC50 [6]: > 50 µg/mL | neutralization IC50 [7]: 0.324 µg/mL | IC50 [8]: > 50 µg/mL | IC50, pseudovirus neutralization [30]: 0.009 µg/mL | IC50, pseudovirus neutralization [31]: > 50 µg/mL | IC50, pseudovirus neutralization [32]: > 50 µg/mL | IC50, pseudovirus neutralization [33]: 7.32 µg/mL | IC50 [34]: > 10 µg/mL | IC50, pseudovirus neutralization [34]: > 50 µg/mL | IC80 [34]: > 10 µg/mL | IC90 [34]: > 10 µg/mL | IC95 [34]: > 10 µg/mL | IC50 (ug/ml), neutralizing activity [35]: 0.0163 µg/mL | IC50 (ug/ml), neutralizing activity [14]: > 10 µg/mL | IC50, pseudovirus neutralization [17]: 0.038 µg/mL | IC50, pseudovirus neutralization [18]: > 50 µg/mL | IC50, pseudovirus neutralization [36]: 0.875 µg/mL | IC50 (ug/ml), neutralizing activity [20]: 0.0046 µg/mL | IC50, pseudovirus neutralization [37]: > 50 µg/mL | IC50 (ug/ml), neutralizing activity [23]: > 10 µg/mL | IC50, pseudovirus neutralization [38]: 48.8 µg/mL | neutralization IC50 [26]: > 50 µg/mL | Fold IC50 increase relative to wild-type [39]: 1.1 fold

4858_P08 (PGT-123) (antibody)
IC50, pseudovirus neutralization [28]: 0.181 µg/mL | IC50 (ug/ml), neutralizing activity [1]: > 10 µg/mL | IC50, pseudovirus neutralization [1]: > 10 µg/mL | IC80, pseudovirus neutralization [1]: > 10 µg/mL | IC90 (pseudovirus neutralization) [1]: > 10 µg/mL | IC95, pseudovirus neutralization [1]: > 10 µg/mL | neutralization IC50 [2]: > 50 µg/mL | IC50, pseudovirus neutralization [29]: 0.008 µg/mL | neutralization IC50 [3]: > 50 µg/mL | IC50, pseudovirus neutralization [5]: 33.5 µg/mL | neutralization IC50 [6]: > 50 µg/mL | neutralization IC50 [7]: > 50 µg/mL | IC50 [8]: 4.95 µg/mL | IC50, pseudovirus neutralization [30]: 0.005 µg/mL | IC50, pseudovirus neutralization [31]: > 50 µg/mL | IC50, pseudovirus neutralization [32]: > 50 µg/mL | IC50, pseudovirus neutralization [33]: 14.9 µg/mL | IC50, pseudovirus neutralization [34]: > 50 µg/mL | IC50 (ug/ml), neutralizing activity [35]: 0.013 µg/mL | IC50, pseudovirus neutralization [35]: 0.013 µg/mL | IC80, pseudovirus neutralization [35]: 0.039 µg/mL | IC90 (pseudovirus neutralization) [35]: 0.0741 µg/mL | IC95, pseudovirus neutralization [35]: 0.134 µg/mL | IC50 (ug/ml), neutralizing activity [14]: > 10 µg/mL | IC50, pseudovirus neutralization [14]: > 10 µg/mL | IC80, pseudovirus neutralization [14]: > 10 µg/mL | IC90 (pseudovirus neutralization) [14]: > 10 µg/mL | IC95, pseudovirus neutralization [14]: > 10 µg/mL | IC50, pseudovirus neutralization [17]: 0.009 µg/mL | IC50, pseudovirus neutralization [18]: > 50 µg/mL | IC50, pseudovirus neutralization [36]: 0.182 µg/mL | IC50 (ug/ml), neutralizing activity [20]: 0.0038 µg/mL | IC50, pseudovirus neutralization [20]: 0.0038 µg/mL | IC80, pseudovirus neutralization [20]: 0.0106 µg/mL | IC90 (pseudovirus neutralization) [20]: 0.0194 µg/mL | IC95, pseudovirus neutralization [20]: 0.0343 µg/mL | IC50, pseudovirus neutralization [37]: 0.026 µg/mL | IC50 (ug/ml), neutralizing activity [23]: > 10 µg/mL | IC50, pseudovirus neutralization [23]: > 10 µg/mL | IC80, pseudovirus neutralization [23]: > 10 µg/mL | IC90 (pseudovirus neutralization) [23]: > 10 µg/mL | IC95, pseudovirus neutralization [23]: > 10 µg/mL | IC50, pseudovirus neutralization [38]: 3.97 µg/mL | neutralization IC50 [26]: > 50 µg/mL | Fold IC50 increase relative to wild-type [39]: 2.3 fold
